Substitutions are numbered along the chain they refer to.
B1: ePGDM9 (antibody, V domains shown)
VH: QAQLVQSGPEVRKPGTSVKVSCKNPGNTLTTYDLHWVRQVPGQGLQWMGWISHEGDKKVIVERFKAKVTIDWDRSTNTAYLQLSGLTSEDTAVYYCAKGSKHRLRDYALYDEDGALNWAVDVDYLANLEFWGQGTAVTVSS
VL: DIVLTQSPLSLSVTPGESASISCKSSQSLIHGDRNNYLAWYVQKPGRSPQLLIDLASERASGVPDRFSGSGSRKDFTLKISRVETEDVGTYYCMQGRESPWTFGQGTKVDIK
B2: PGDM1400 (antibody, V domains shown)
VH: B1 VH with A2V, Q3H, V5T, N24A, T30K, Q39S, E89G, E112D, A126S
VL: B1 VL with I2F, L9H, Q27H, D54Y, E58S, R73D
B3: ePGDM5 (antibody, V domains shown)
VH: B1 VH
VL: B1 VL with I2F, S26D, Q27H, I30Q, S81D, T85A
B4: ePGDM13 (antibody, V domains shown)
VH: B1 VH
VL: B1 VL with Q27H, I30Q, I53L, R73E

molecular target: HIV Env, isolate X1632_S2_B10 (HIV); assay: cell-based or functional assay

Binder | IC80 (µg/ml) with constrains
B1 | 0.01 µg/mL
B2 | 0.135 µg/mL
B3 | 0.012 µg/mL
B4 | 0.013 µg/mL

molecular target: HIV Env, isolate Ce704809221_1B3 (HIV); assay: cell-based or functional assay

Binder | IC80 (µg/ml) with constrains
B1 | 0.539 µg/mL
B2 | 1.28 µg/mL
B3 | 0.749 µg/mL
B4 | 1.36 µg/mL

molecular target: HIV Env, isolate A07412M1.vrc12 (HIV); assay: cell-based or functional assay

Binder | IC80 (µg/ml) with constrains
B1 | 0.103 µg/mL
B2 | 0.115 µg/mL
B3 | 0.035 µg/mL
B4 | 0.118 µg/mL

molecular target: HIV Env, isolate TRJO4551.58 (HIV); assay: cell-based or functional assay

Binder | IC80 (µg/ml) with constrains
B1 | > 100 µg/mL
B2 | > 100 µg/mL
B3 | > 100 µg/mL
B4 | > 100 µg/mL

molecular target: HIV Env, isolate P0402_C2_11 (HIV); assay: cell-based or functional assay

Binder | IC80 (µg/ml) with constrains
B1 | 0.003 µg/mL
B2 | 0.027 µg/mL
B3 | 0.015 µg/mL
B4 | 0.006 µg/mL

molecular target: HIV Env, isolate Ce1172_H1 (HIV); assay: cell-based or functional assay

Binder | IC80 (µg/ml) with constrains
B1 | 0.108 µg/mL
B2 | 0.872 µg/mL
B3 | 0.065 µg/mL
B4 | 0.242 µg/mL

molecular target: HIV Env, isolate ZM109F.PB4 (HIV); assay: cell-based or functional assay

Binder | IC80 (µg/ml) with constrains
B1 | 0.106 µg/mL
B2 | 0.39 µg/mL
B3 | 0.121 µg/mL
B4 | 0.196 µg/mL

molecular target: HIV Env, isolate 1056_10_TA11_1826 (HIV); assay: cell-based or functional assay

Binder | IC80 (µg/ml) with constrains
B1 | 3.61 µg/mL
B2 | 13.5 µg/mL
B3 | 3.57 µg/mL
B4 | 6.03 µg/mL

molecular target: HIV Env, isolate 6480.v4.c25 (HIV); assay: cell-based or functional assay

Binder | IC80 (µg/ml) with constrains
B1 | > 100 µg/mL
B2 | > 100 µg/mL
B3 | > 100 µg/mL
B4 | > 100 µg/mL

molecular target: HIV Env, isolate CNE53 (HIV); assay: cell-based or functional assay

Binder | IC80 (µg/ml) with constrains
B1 | 0.029 µg/mL
B2 | 0.105 µg/mL
B3 | 0.081 µg/mL
B4 | 0.059 µg/mL

molecular target: HIV Env, isolate 89-F1_2_25 (HIV); assay: cell-based or functional assay

Binder | IC80 (µg/ml) with constrains
B1 | 0.004 µg/mL
B2 | 0.013 µg/mL
B3 | 0.006 µg/mL
B4 | 0.006 µg/mL

molecular target: HIV Env, isolate P1981_C5_3 (HIV); assay: cell-based or functional assay

Binder | IC80 (µg/ml) with constrains
B1 | 0.585 µg/mL
B2 | 75.6 µg/mL
B3 | 1.18 µg/mL
B4 | 1.28 µg/mL

molecular target: HIV Env, isolate Ce2060_G9 (HIV); assay: cell-based or functional assay

Binder | IC80 (µg/ml) with constrains
B1 | 0.538 µg/mL
B2 | 0.099 µg/mL
B3 | 0.044 µg/mL
B4 | 0.071 µg/mL

molecular target: HIV Env, isolate REJO4541.67 (HIV); assay: cell-based or functional assay

Binder | IC80 (µg/ml) with constrains
B1 | 0.003 µg/mL
B2 | 0.017 µg/mL
B3 | 0.005 µg/mL
B4 | 0.008 µg/mL

Source: patent publication US20230134571A1 (INTERNATIONAL AIDS VACCINE INITIATIVE, published 2023)
